Experimental data reported in patent publication US20200283478A1 (Genentech, published 2020).
Bridge positions count the residues as written; N and C are the ends. Square brackets hold non-standard residues; d marks the D form. Ends that are not written are not given here. Trp(6-F) = N[C@@H](Cc1c[nH]c2cc(F)ccc12)C(=O)O; hArg = N=C(N)NCCCC[C@H](N)C(=O)O

Assays:
PCSK9Δhelix = target: T1, PCSK9Δhelix (human, Chemically biotinylated in the phage ELISAs; the site is not given.); assay: phage spot ELISA
T1 construct: construct M1-Q692 with engineered TEV site, cleaved by TEV; also called His-PCSK9Δhelix; open groove PCSK9Δhelix
T1 sequence (prodomain, as listed by the source mutant limits assumed, chain 1 of 2): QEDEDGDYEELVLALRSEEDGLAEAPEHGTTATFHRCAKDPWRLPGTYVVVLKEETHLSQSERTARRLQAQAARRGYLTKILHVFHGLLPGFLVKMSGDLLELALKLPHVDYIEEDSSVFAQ
T1 sequence (chain, as listed by the source mutant limits assumed, chain 2 of 2): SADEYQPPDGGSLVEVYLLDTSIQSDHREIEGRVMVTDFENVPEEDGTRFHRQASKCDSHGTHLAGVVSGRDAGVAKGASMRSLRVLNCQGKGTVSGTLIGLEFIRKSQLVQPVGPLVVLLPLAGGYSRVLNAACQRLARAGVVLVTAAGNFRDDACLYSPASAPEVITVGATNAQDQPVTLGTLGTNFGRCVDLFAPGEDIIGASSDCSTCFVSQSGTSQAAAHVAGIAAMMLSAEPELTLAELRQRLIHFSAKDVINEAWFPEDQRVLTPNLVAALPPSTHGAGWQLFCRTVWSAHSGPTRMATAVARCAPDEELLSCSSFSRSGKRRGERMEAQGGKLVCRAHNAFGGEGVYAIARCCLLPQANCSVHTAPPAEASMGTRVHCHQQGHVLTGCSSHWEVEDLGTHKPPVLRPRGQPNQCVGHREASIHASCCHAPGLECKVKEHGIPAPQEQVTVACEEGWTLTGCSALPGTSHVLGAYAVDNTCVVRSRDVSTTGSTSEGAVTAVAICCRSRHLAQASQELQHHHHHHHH

[1] = target: T2, proprotein convertase subtilisin/kexin type 9 (PCSK9) (human, UniProt Q8NBP7 31-692); assay: phage spot ELISA
T2 construct: His-tagged full-length PCSK9 in TR-FRET and SPR, biotinylated in phage ELISA; secreted protein is autoprocessed (prodomain plus catalytic/CRD chain starting at S153); also called rec.PCSK9; His-PCSK9
T2 sequence (Q8NBP7 other isoform, or with tags, fused parts or gaps limits assumed): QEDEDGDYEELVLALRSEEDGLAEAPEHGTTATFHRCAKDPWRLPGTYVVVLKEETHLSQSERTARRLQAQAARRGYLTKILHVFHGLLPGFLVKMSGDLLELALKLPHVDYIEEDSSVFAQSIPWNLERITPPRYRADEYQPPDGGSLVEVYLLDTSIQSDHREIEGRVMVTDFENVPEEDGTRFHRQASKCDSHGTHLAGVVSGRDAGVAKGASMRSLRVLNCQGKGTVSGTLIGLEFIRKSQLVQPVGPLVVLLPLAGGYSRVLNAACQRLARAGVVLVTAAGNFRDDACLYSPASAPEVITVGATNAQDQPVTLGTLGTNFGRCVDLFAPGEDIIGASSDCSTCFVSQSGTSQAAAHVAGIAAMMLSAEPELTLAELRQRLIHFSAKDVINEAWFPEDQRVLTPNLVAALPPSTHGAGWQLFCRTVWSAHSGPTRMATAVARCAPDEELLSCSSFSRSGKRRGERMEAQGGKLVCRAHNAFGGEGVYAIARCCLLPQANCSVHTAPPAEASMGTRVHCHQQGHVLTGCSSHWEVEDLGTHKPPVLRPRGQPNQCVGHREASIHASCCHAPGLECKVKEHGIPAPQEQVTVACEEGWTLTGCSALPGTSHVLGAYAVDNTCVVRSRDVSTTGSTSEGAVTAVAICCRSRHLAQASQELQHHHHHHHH

[2] = target: T3, His-tagged, full-length PCSK9 (human, UniProt Q8NBP7 31-692); assay: TR-FRET competition; His-PCSK9, competitor EGF(A)-Fc
T3 construct: The secreted protein is autocleaved into a prodomain and a catalytic/Cys-rich chain that starts at S153; also called His-PCSK9
T3 sequence (Q8NBP7 other isoform, or with tags, fused parts or gaps limits assumed): as above
Protocol: (§1) Signal generation in the PCSK9 binding assays was dependent upon the binding interaction to bring into close proximity the His-tag on the PCSK9 and the Fc-tag on the ligand. Anti-His-APC was bound to the His-tag, and anti-Fc-europium was bound to the Fc-tag.
(§2) Compounds were solubilized and dilutions were prepared in DMSO. […] The plate was centrifuged to mix the well contents and allowed to incubate for 30 min. […] The normalized TR-FRET ratios were plotted as a function of the compound concentrations, and the IC₅₀ values were determined using a 4-parameter logistic regression.

His-tagged PCSK9Δhelix = target: T4, His-tagged PCSK9Δhelix (human, UniProt Q8NBP7 31-152; Q8NBP7 168-692); assay: TR-FRET competition; His-PCSK9Δhelix, competitor Ab20
T4 construct: Construct M1-Q692 with engineered TEV site, cut by TEV protease; new N-terminus of the catalytic domain is S-A168; also called His-PCSK9Δhelix
T4 sequence (Q8NBP7 31-152, stated change not applied, chain 1 of 2): as the sequence (prodomain, as listed by the source mutant limits assumed, chain 1 of 2) above
T4 sequence (Q8NBP7 other isoform, or with tags, fused parts or gaps mutant, chain 2 of 2): as the sequence (chain, as listed by the source mutant limits assumed, chain 2 of 2) above
Protocol: as §1, §2

| Binder | ELISA (PCSK9Δhelix) | s/n ratio (PCSK9Δhelix) | ELISA [1] | s/n ratio [1] | IC50 [2] [µM] | IC50 (His-tagged PCSK9Δhelix) [µM] |
| --- | --- | --- | --- | --- | --- | --- |
| TAFTSWEEYLDWVGSGNCARLYSHQRDYSQVC [SEQ ID NO 352] | 2.64 | 26.1 | 2.66 | 24.4 | – | – |
| TAFTSWEEYLDWVGSGCMEAWQCSLA [SEQ ID NO 337] | – | – | 2.73 | 24.6 | – | – |
| WNLV[hArg]IG-NH2 (N-terminus assumed; SMILES CC[C@H](C)[C@H](NC(=O)[C@H](CCCCNC(=N)N)NC(=O)[C@@H](NC(=O)[C@H](CC(C)C)NC(=O)[C@H](CC(N)=O)NC(=O)[C@@H](N)Cc1c[nH]c2ccccc12)C(C)C)C(=O)NCC(N)=O, also called WNLV(homoR)IG-NH2) [Compound 236] | – | – | – | – | ≥ 50 | 22 |
| WNLV[hArg]IGQR (also: further groups not given here, Structure printed only as a drawing) [Compound 239] | – | – | – | – | 32 | 1.2 |
| WNLV[hArg]IGNR (also: further groups not given here, Structure printed only as a drawing) [Compound 240] | – | – | – | – | 31 | 0.92 |
| Ac-MESFPGWNLV[hArg]IGLLR-NH2 (SMILES CC[C@H](C)[C@H](NC(=O)[C@H](CCCCNC(=N)N)NC(=O)[C@@H](NC(=O)[C@H](CC(C)C)NC(=O)[C@H](CC(N)=O)NC(=O)[C@H](Cc1c[nH]c2ccccc12)NC(=O)CNC(=O)[C@@H]1CCCN1C(=O)[C@H](Cc1ccccc1)NC(=O)[C@H](CO)NC(=O)[C@H](CCC(=O)O)NC(=O)[C@H](CCSC)NC(C)=O)C(C)C)C(=O)NCC(=O)N[C@@H](CC(C)C)C(=O)N[C@@H](CC(C)C)C(=O)N[C@@H](CCCNC(=N)N)C(N)=O) [Compound 229] | – | – | – | – | 0.81 | 8.1 |
| Ac-MESFPGWNLK[hArg]IGLLR-NH2 (SMILES CC[C@H](C)[C@H](NC(=O)[C@H](CCCCNC(=N)N)NC(=O)[C@H](CCCCN)NC(=O)[C@H](CC(C)C)NC(=O)[C@H](CC(N)=O)NC(=O)[C@H](Cc1c[nH]c2ccccc12)NC(=O)CNC(=O)[C@@H]1CCCN1C(=O)[C@H](Cc1ccccc1)NC(=O)[C@H](CO)NC(=O)[C@H](CCC(=O)O)NC(=O)[C@H](CCSC)NC(C)=O)C(=O)NCC(=O)N[C@@H](CC(C)C)C(=O)N[C@@H](CC(C)C)C(=O)N[C@@H](CCCNC(=N)N)C(N)=O) [Compound 233] | – | – | – | – | 3.1 | 50 |
| TAFTSWEEYLDWVGSGGVLGVGGMWIA [SEQ ID NO 335] | 2.61 | 24.4 | 1.45 | 12.8 | – | – |
| TAFTSWEEYLDWVGSGPRTYLRGLVD [SEQ ID NO 340] | 2.73 | 25.1 | 2.77 | 25.6 | – | – |
| TAFTSWEEYLDWVGSGCWTYLRGGCSVT [SEQ ID NO 339] | 3.05 | 20.2 | 3.07 | 22.1 | – | – |
| TAFTSWEEYLDWVGSGGDCGYHYMCSMT [SEQ ID NO 345] | 2.63 | 25.5 | 2.75 | 25 | – | – |
| TAFTSWEEYLDWVGSGSYRGAWSVFGGSTD [SEQ ID NO 336] | 2.69 | 17.2 | 2.79 | 19.5 | – | – |
| TAFTSWEEYLDWVGSGCCSYGYEKCCNG [SEQ ID NO 349] | 2.88 | 27.2 | 2.87 | 28.6 | – | – |
| Ac-TVFTS[Trp(6-F)]EEYLDWVGSGCRLPWNLQRIGLPC-NH2 (disulfide 17-30 (inferred)) [Compound 241] | – | – | – | – | 1.6 | 0.1 |
| TAFTSWEEYLDWVGSGGCGYRYMCDMINGL [SEQ ID NO 358] | 3.01 | 30.4 | 2.92 | 32.8 | – | – |
| TAFTSWEEYLDWVGSGDCNLWGDDGKYRLCF [SEQ ID NO 333] | 2.81 | 23 | 2.72 | 23.6 | – | – |
| TAFTSWEEYLDWVGSGCYPLCRVG [SEQ ID NO 355] | 3.05 | 29.6 | 3.06 | 16.2 | – | – |
| TAFTSWEEYLDWVGSGCYPLCRVL [SEQ ID NO 364] | 3.09 | 31.9 | 2.86 | 31.1 | – | – |

| Binder | ELISA (PCSK9Δhelix) | s/n ratio (PCSK9Δhelix) | ELISA [1] | s/n ratio [1] | IC50 [2] [µM] | IC50 (His-tagged PCSK9Δhelix) [µM] |
| --- | --- | --- | --- | --- | --- | --- |
| TAFTSWEEYLDWVGSGNMCYLRGKMDCNIV [SEQ ID NO 347] | 2.83 | 28.6 | 2.91 | 30.9 | – | – |
| TAFTSWEEYLDWVGSGDCLRYRVGSSCS [SEQ ID NO 360] | 2.87 | 28.9 | 3.04 | 29.6 | – | – |
| TAFTSWEEYLDWVGSGSPCRVGYTPC [SEQ ID NO 351] | 2.87 | 25.4 | 2.92 | 27.7 | – | – |
| TAFTSWEEYLDWVGSGCVKVGLSWIGDCNS [SEQ ID NO 334] | 2.74 | 25.1 | 2.66 | 23.9 | – | – |
| TAFTSWEEYLDWVGSGKCDSHYIRGVVACH [SEQ ID NO 356] | 3.03 | 30.9 | 2.95 | 30.2 | – | – |
| TAFTSWEEYLDWVGSGGREMRSVIQM [SEQ ID NO 344] | 2.74 | 26.6 | 2.71 | 28.2 | – | – |
| TAFTSWEEYLDWVGSGRGEVYDKGGVIVHL [SEQ ID NO 343] | 2.83 | 30.1 | 2.84 | 30.5 | – | – |
| TAFTSWEEYLDWVGSGQELPNHRRLS [SEQ ID NO 346] | 2.43 | 14.3 | 2.3 | 19.1 | – | – |
| TAFTSWEEYLDWVGSGQISYLRNA (not fully specified; also: Q (1) D-amino acid, place in chain unclear (phage-displayed)) [SEQ ID NO 342] | 2.31 | 22.6 | 2.7 | 22.9 | – | – |
| TAFTSWEEYLDWVGSGCLDRSGGCYTREGYLS [SEQ ID NO 353] | 3.05 | 30.4 | 3.06 | 29 | – | – |
| TAFTSWEEYLDWVGSGVCSDHYIGGKEVRC [SEQ ID NO 348] | 2.94 | 15.4 | 2.99 | 27.4 | – | – |
| TAFTSWEEYLDWVGSGGDCYPHCRLV [SEQ ID NO 359] | 2.85 | 28.5 | 2.86 | 28.9 | – | – |
| TAFTSWEEYLDWVGSGSSTWHFVGGVRV [SEQ ID NO 354] | 2.88 | 29.7 | 2.71 | 24.4 | – | – |
| TAFTSWEEYLDWVGSGSETGLGTYYG [SEQ ID NO 350] | 2.78 | 25.5 | 2.81 | 28.1 | – | – |
| TAFTSWEEYLDWVGSGKMTHMKAD [SEQ ID NO 357] | 0.106 | 1.07 | 2.31 | 22.4 | – | – |
| TAFTSWEEYLDWVGSGQCYPWCRL [SEQ ID NO 338] | 2.65 | 29.2 | 2.71 | 25.1 | – | – |
| TAFTSWEEYLDWVGSGQTTYLRVSSS [SEQ ID NO 341] | 2.29 | 24.4 | 2.59 | 27 | – | – |
